Test results from patent publication US20250277045A1 (KEYMED BIOSCIENCES, published 2025).

T1: human BCMA on cells (CHO-hBCMA clone 2C2; NCI-H929; RPMI-8226) (human, UniProt Q02223 1-184)
T1 sequence (looked up): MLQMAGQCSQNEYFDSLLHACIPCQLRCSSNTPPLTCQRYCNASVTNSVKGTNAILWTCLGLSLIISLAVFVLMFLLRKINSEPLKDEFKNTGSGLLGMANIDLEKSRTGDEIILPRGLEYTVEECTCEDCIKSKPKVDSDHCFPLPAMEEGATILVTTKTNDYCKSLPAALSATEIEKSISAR

B1: 29A11 Fab (Fab, V domains shown)
VH: EIQLVQSGPELKKPGETVKISCKASGYIFTNFGMNWVRQAPGKALKWMGWINTYTGEQIYADDFKGRFAFSLETSASTAYLQINNLKNEDTATYFCARGEIYYGYDVGFVYWGQGTLVTVSA
VL: DIVLTQSPASLAVSLGQRATISCRASKSVSTSGYSYMHWYQQKPGQPPKLLIYLASNLESGVPARFSGSGSGTDFTLNIHPVEEEDAATYYCQHSRELPWTFGGGTKLEIK
notes: Murine BCMA Fab, Ni-NTA purified
B2: 38F9 Fab (Fab, V domains shown)
VH: EIQLVQSGPELKKPGETVKISCKASGYIFTNFGMNWVRQAPGKALKWMGWINTYTGEQIYADDFKGRFAFSLETSASTAYLQINNLKNEDTATYFCARGEIYYGYDVGFVYWGQGTLVTVSA
VL: NIVLTQSPASLAVSLGQRATISCRASESVDSSGNSFMHWYQQKPGQPPKLLIYLESNLESGVPARFSGSGSRTDFTLTIEPVEADDAATYYCQQSNEDPWTFGGGTKLEIK
notes: as for B1
B3: 23F8 Fab (Fab, V domains shown)
VH: EIQLVQSGPELKKPGETVKISCTASGYTFTNFGMNWVRQAPGKALRWMGWINTYTGDQIYADDFKGRFAFSLETSASTAYLQINNLKNEDTATYFCARGEIYYGYDVGFVYWGQGTLVTVSA
VL: DIVLTQSPASLAVSLGQRATISCRASKSVSTSGYSYMHWYQQKPGQPPKLLIYLASNLESGVPARFSGSGSGTDFTLNIHPVEEEDAATYYCQHSRELPWTFGGGTKLEIK
notes: as for B1
B4: 40C6 Fab (Fab, V domains shown)
VH: EIQLVQSGPELKKPGETVKISCKASGYIFTNFGMNWVRQAPGKALKWMGWINTYTGEQIYADDFKGRFAFSLETSASTAYLQINNLKNEDTATYFCARGEIYYGYDVGFVYWGQGTLVTVSA
VL: DIVLTQSPASLAISLGQRATISCRASRSVTTSGYSYIHWYQQKPGQPPKLLIYLASDLEAGVPARFSGSGSGTDFTLNIHPVEEEDAATYYCQHSRELPWTFGGGTKLEIK
notes: as for B1
B5: 6G5 Fab (Fab, V domains shown)
VH: EIQLVQSGPELKKPGETVKISCKASGYIFTNFGMNWVRQAPGKALKWMGWINTYTGEQIYADDFKGRFAFSLETSASTAYLQINNLKNEDTATYFCARGEIYYGYDVGFVYWGQGTLVTVSA
VL: DIVLTQSPASLAISLGQRATISCRASKSVTTSGYSYIHWYQQKPGQPPKLLIYLASDLEAGVPARFSGSGSGTDFTLNIHPVEEEDAATYYCQHSRELPWTFGGGTKLELK
notes: as for B1
B6: 3G11 Fab (Fab, V domains shown)
VH: EIQLVQSGPELKKPGETVKISCKASGYIFTNFGMNWVRQAPGKALKWMGWINTYTGEQIYADDFKGRFAFSLETSASTAYLQINNLKNEDTATYFCARGEIYYGYDVGFVYWGQGTLVTVSA
VL: DIVLTQSPASLTVSLGQRATISCRASKSVSTSGYSYMHWYQQKPGQPPKLLIYLASDLESGVSARFSGSGSGTDFTLNIHPVEEEDAATYYCQHSRELPWTFGGGTKLEIK
notes: Murine BCMA Fab from phage library, expressed in TG1 periplasm, purified by Ni-NTA
B7: 34G2 Fab (Fab, V domains shown)
VH: EVQLQQSGPELRKPGETVKISCKASGYTFTNYGMNWVKQTPGKGLKWMGWINTYTGERIYADDFKGRFAFSLETSASTAYLQINNLKNEDTATYFCARGEIYYGYDVGFVYWGQGTLVTVSA
VL: DIVLTQSPASLVVSLGQRATISCRASKSVSTSGYSYMHWYQQKPGQPPKLLIYLASNLESGVPARFSGSGSGTDFTLNIHPVEEEDAATYYCQHSRELPWTFGGGTRLEIK
notes: as for B1
B8: 38D9 Fab (Fab, V domains shown)
VH: EVQLQQSGPELKKPGETVKISCKASGYIFTNFGMNWVRQAPGKALKWMGWINTYTGEQIYADDFKGRFAFSLETSASTAYLQINNLKNEDTATYFCARGEIYYGYDVGFVYWGQGTLVTVSA
VL: DIVLTQSPASLTVSLGQRATISCGASKSVSTSGYSYMHWYQQKPGQPPKLLIYLGSDLESGVPARFSGSGSGTDFTLNIHPVEEEDAATYYCQHSRELPWTFGGGTKLEIK
notes: as for B1
B9: 16B9 Fab (Fab, V domains shown)
VH: EIQLVQSGPELKKPGETVKISCKASGYIFTNFGMNWVRQTPGKALKWMGWINTYTGETIYADDFKGLFAFSLEVPASTAYLQINNLKNEDTATYFCARGEIYYGFDVGFAYWGQGTLVTVSA
VL: DIVLTQSPASLTVSLGQRATISCRASKSVSTSGYSYIHWYQQKPGQPPKLLIYLASDLESGVPARFSGSGSGTDFTLNIHPVEEEDAATYYCQHSRELPWTFGGGTKLELK
notes: as for B1
B10: 15H10 Fab (Fab, V domains shown)
VH: EVQLQQSGPELKKPGETVKISCKASGYTFTNFGMNWVRQTPGKALKWMGWINTYTGDLIYGDDFKGRFAFSLETSASTAYLQINNLKNEDTATYFCARGEIYYGYDVGFAYWGQGTLVTVSA
VL: DIVLTQSPASLAVSLGQRATISCRASKSVSTSGYSYMHWYQQKPGQPPKLLIYLASNLESGVPARFSGSGSGTDFTLNIHPVEEEDAATYYCQHSRELPWTFGGGTKLEIK
notes: as for B1
B11: 23G9 Fab (Fab, V domains shown)
VH: EVQLQQSGTVLTRPGASVKLSCKASGYSFSSYWMHWLKQRPGQGLEWIGAIYPGNSRTTYNQKFKGEAKLTADTSASTAYMDLSSLTNADSAVYFCTREETYWGQGTLVTVSA
VL: DVVMTQTPLSLSVTIGQPASISCKSSQGLLDSYGVTYLNWLFQRPGQPPKRLIYLVSELDSGVPDRFTGSGSGTDFTLRISRVEAEDLGIYYCWQGSHFPLTFGAGTKLELK
notes: as for B1
B12: 38E2 Fab (Fab, V domains shown)
VH: QVQLQQSGAELVRPGTSVKMSCKAAGYTFTNYWIGWVKQRPGHGLEWIGDIYPGSGDTNYNGKFKGKATLAADISSNAAYMQLSSLTSEDSAIYYCARSYYRNDAASFAYWGQGTLVTVSA
VL: DIVMTQSHKFMSTSVGDRVNITCKASQDVDTAVAWYQQKPSQSPKLLIYWTSTRHTGVPDRFTGSGSGTDFTLTISNVQSEDLADYFCQQFSSYPLTFGAGTKLELK
notes: as for B1
B13: 15G9 Fab (Fab, V domains shown)
VH: QVQLQQSGPELVKPGASVNLSCKASGYTFTNYVIHWVKQKPGQGLEWIGYTIPYTDVTKYNEKFKAKATLTSDKSSSTAFMELSSLTSEDSAVYYCARYDFDGYFDYWGQGTTLTVSS
VL: DIVMTQAAFSNPVTLGTSASISCRSSKSLLHSNGITYLYWYLQKPGQSPQLLIYQMSNLASGVPDRFSSSGSGTDFTLRISRVEAEDVGVYYCAQNLELPWTFGGGTKLELK
notes: as for B1
B14: h38E2-CD3 (bispecific antibody, V domains shown)
VH 1: QVQLVQSGAEVKKPGSSVKVSCKASGYTFTNYWIGWVREAPGQGLEWMGDIYPGSGDTNYNGKFQGRVTLTADISSNTAYMELSSLRSEDTAVYYCARSYYRNDAASFAYWGQGTLVTVSS
VL 1: DIQMTQSPSSLSASVGDRVTITCQASQDVDTAVAWYQKKPGKAPKLLIYWTSTRHTGVPSRFSGSGSGTDFTFTISSLQPEDIATYFCQQFSSYPLTFGQGTKVEIK
VH 2: EVQLVESGGGLVQPGGSLRLSCAASGFTFNTYAMNWVRKAPGKGLEWVGRIRSKYNNYATYYADSVKDRFTISRDDSKNSLYLQMNSLKTEDTAVYYCVRHGNFGNSYVSWFAYWGQGTLVTVSS
VL 2: QAVVTQEPSLTVSPGGTVTLTCRSSTGAVTTSNYANWVQEKPGQAPRGLIGGTNKRAPWTPARFSGSLLGGKAALTITGAQAEDEAEYYCVLWYSNLWVFGGGTKLTVL
B15: h23F8-CD3 (bispecific antibody, V domains shown)
VH 1: QVQLVQSGSELKKPGASVKVSCKASGYTFTNFGMNWVREAPGQGLEWMGWINTYTGDQIYADDFKGRFAFSLDTSASTAYLQISSLKAEDTAVYFCARGEIYYGYDVGFVYWGQGTLVTVSS
VL 1: DIVLTQSPASLAVSPGQRATITCRASKSVSTSGYSYMHWYQKKPGQPPKLLIYLASNLESGVPARFSGSGSGTDFTLTINPVEANDTANYYCQHSRELPWTFGQGTKVEIK
VH 2: EVQLVESGGGLVQPGGSLRLSCAASGFTFNTYAMNWVRKAPGKGLEWVGRIRSKYNNYATYYADSVKDRFTISRDDSKNSLYLQMNSLKTEDTAVYYCVRHGNFGNSYVSWFAYWGQGTLVTVSS
VL 2: QAVVTQEPSLTVSPGGTVTLTCRSSTGAVTTSNYANWVQEKPGQAPRGLIGGTNKRAPWTPARFSGSLLGGKAALTITGAQAEDEAEYYCVLWYSNLWVFGGGTKLTVL
Wherever Upregulation of CD25 (%), CD4+T is given: test concentration or dose not given here.
Wherever Upregulation of CD25 (%), CD8+T is given: test concentration or dose not given here.
Wherever Upregulation of CD69 (%), CD4+T is given: test concentration or dose not given here.
Wherever Upregulation of CD69 (%), CD8+T is given: test concentration or dose not given here.

What follows are binders tested against T2, human BCMA-hFc kih monovalent recombinant protein (human, UniProt P0DOX5 223-449 = IgG part) (assay: SPR (Biacore T200), BCMA-hFc captured on Protein A chip, Fab as analyte, 1:1 Langmuir).
T2 construct: Knob-into-hole heterodimer with one BCMA arm, expressed in HEK293E; also called human BCMA-hFc recombinant protein
Excerpt: Kinetic constants were fitted using Biacore T200 evaluation software with a Langmuir 1:1 kinetics model.
B1 was tested, and the Kd was 3.2 nM, the koff was 0.000243 s⁻¹ and the kon was 76400 M⁻¹ s⁻¹.
Binder B2 has a Kd of 344 nM, a koff of 0.002 s⁻¹ and a kon of 5810 M⁻¹ s⁻¹.
B3 gave a Kd of 5.6 nM, a koff of 0.000322 s⁻¹ and a kon of 57700 M⁻¹ s⁻¹.
B4 was tested, and the Kd was 6.4 nM, the koff was 0.000271 s⁻¹ and the kon was 42100 M⁻¹ s⁻¹.
B5 gave a Kd of 2.1 nM, a koff of 6.13e-05 s⁻¹ and a kon of 29400 M⁻¹ s⁻¹.
B6 gave a Kd of 13 nM, a koff of 0.000432 s⁻¹ and a kon of 33300 M⁻¹ s⁻¹.
In the case of B7, the Kd is reported as 5 nM, the koff is reported as 0.000705 s⁻¹ and the kon is reported as 142000 M⁻¹ s⁻¹.
For B8, the Kd was 5.6 nM, the koff was 0.000329 s⁻¹ and the kon was 59100 M⁻¹ s⁻¹.
B9 showed a Kd of 4.1 nM, a koff of 0.000476 s⁻¹ and a kon of 117000 M⁻¹ s⁻¹.
Work on B10 yielded a Kd of 18.3 nM, a koff of 0.00069 s⁻¹ and a kon of 37800 M⁻¹ s⁻¹.
B11 was tested, and the Kd was 76.9 nM, the koff was 0.000313 s⁻¹ and the kon was 4070 M⁻¹ s⁻¹.
With B12 the Kd was 8.1 nM, the koff was 0.000798 s⁻¹ and the kon was 98800 M⁻¹ s⁻¹.
B13 showed a Kd of 12.2 nM, a koff of 0.0126 s⁻¹ and a kon of 1.03e+06 M⁻¹ s⁻¹.

The binders below were run against T1, human BCMA on cells (CHO-hBCMA clone …) (assay: cell-based or functional assay).
In the case of B14, the “Killing EC50 (TDCC, LDH release; PBMC + RPMI-8226)” value is reported as 13.6 nM.
With B15 the “Killing EC50 (TDCC, LDH release; PBMC + RPMI-8226)” value was 0.81 nM.

These binders were tested against human CD3 on T cells (Jurkat cells; human peripheral blood CD4+ and CD8+ T cells) (human, UniProt P07766 23-207) (assay: cell-based or functional assay).
Chain of human CD3 on T cells (Jurkat cells; human peripheral blood CD4+ and CD8+ T cells) (P07766 23-207): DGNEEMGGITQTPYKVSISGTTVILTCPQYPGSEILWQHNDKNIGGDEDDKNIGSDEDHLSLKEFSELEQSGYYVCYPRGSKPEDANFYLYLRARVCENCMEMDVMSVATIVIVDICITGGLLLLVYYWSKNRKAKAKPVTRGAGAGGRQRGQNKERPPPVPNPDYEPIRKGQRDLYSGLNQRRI
With B14 the “Upregulation of CD25 (%), CD4+T” value was 29%, the “Upregulation of CD25 (%), CD8+T” value was 38% and the “Upregulation of CD25 EC50, CD4+T” value was 3.65 nM. The “Upregulation of CD25 EC50, CD8+T” value was 3.65 nM, the “Upregulation of CD69 (%), CD4+T” value was 55% and the “Upregulation of CD69 (%), CD8+T” value was 69%. For the same binder, the “Upregulation of CD69 EC50, CD4+T” value was 7.4 nM and the “Upregulation of CD69 EC50, CD8+T” value was 2.32 nM.
In the case of B15, the “Upregulation of CD25 (%), CD4+T” value is reported as 25%, the “Upregulation of CD25 (%), CD8+T” value is reported as 34% and the “Upregulation of CD25 EC50, CD4+T” value is reported as 0.57 nM. The “Upregulation of CD25 EC50, CD8+T” value was 0.79 nM, the “Upregulation of CD69 (%), CD4+T” value was 41% and the “Upregulation of CD69 (%), CD8+T” value was 59%. For the same binder, the “Upregulation of CD69 EC50, CD4+T” value was 0.44 nM and the “Upregulation of CD69 EC50, CD8+T” value was 0.49 nM.
